Data reported in paper PMC3017872.

Legend:
[1] = biological target: Fcε receptors expressed on the surface of U937 monocytic cells (human (endogenous in U937)); assay: flow cytometry on cells
[2] = biological target: recombinant IgE receptor FcεRI alpha (sFcεRIα) (UniProt P12319); assay: SPR
Sequence of UniProt P12319 (P12319 26-205): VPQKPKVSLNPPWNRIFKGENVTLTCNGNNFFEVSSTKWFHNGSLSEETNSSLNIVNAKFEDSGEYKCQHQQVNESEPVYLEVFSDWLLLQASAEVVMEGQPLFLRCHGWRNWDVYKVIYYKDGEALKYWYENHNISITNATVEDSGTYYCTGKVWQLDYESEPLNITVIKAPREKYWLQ

| percent of cells bound [1] [%] | koff [2] [s⁻¹] | kon [2] [M⁻¹ s⁻¹] | Substance |
| --- | --- | --- | --- |
| 60.6 | – | – | chimaeric MOv18 IgE antibody against the ovarian cancer antigen FBP |
| – | 2.6e-05 | 230000 | chimaeric antibody NIP IgE |
